Paper PMC3602593

Target: DARPin H10-2-G3
Assay: SPR; G3 DARPin amine-coupled (about 1,200 RU) on a GLC chip, ProteOn XPR36; HER2 constructs injected as analyte (One-Shot Kinetics, 30 uL/min, 120 s); 25°C; HBS-EBP+ (10 mM HEPES, 150 mM NaCl, 3 mM EDTA, 0.1% BSA, 0.05% Tween 20); global fit to a 1:1 model, KD = kd/ka

In order of falling Kd:
1. HER2 extracellular domain, residues 1-623, Val 552→Ala (from UniProt P04626 23-645) (domain or fragment)  380 nM
2. HER2 extracellular domain, residues 1-623, Leu 525→Ala (from UniProt P04626 23-645) (domain or fragment)  265 nM
3. HER2 extracellular domain, residues 1-623, Phe 555→Ala (from UniProt P04626 23-645) (domain or fragment)  210 nM
4. HER2 extracellular domain, residues 1-623, Ser 551→Ala (from UniProt P04626 23-645) (domain or fragment)  12.8 nM
5. human epidermal growth factor receptor 2 (HER2) extracellular domain, residues 1-623, wild type (from UniProt P04626 23-645) (domain or fragment)  3.3 nM

In order of rising koff:
1. human epidermal growth factor receptor 2 (HER2) extracellular domain, residues 1-623, wild type (from UniProt P04626 23-645) (domain or fragment)  0.00107 s⁻¹
2. HER2 extracellular domain, residues 1-623, Ser 551→Ala (from UniProt P04626 23-645) (domain or fragment)  0.0035 s⁻¹
3. HER2 extracellular domain, residues 1-623, Phe 555→Ala (from UniProt P04626 23-645) (domain or fragment)  0.0384 s⁻¹
4. HER2 extracellular domain, residues 1-623, Leu 525→Ala (from UniProt P04626 23-645) (domain or fragment)  0.0393 s⁻¹
5. HER2 extracellular domain, residues 1-623, Val 552→Ala (from UniProt P04626 23-645) (domain or fragment)  0.064 s⁻¹

In order of rising kon:
1. HER2 extracellular domain, residues 1-623, Leu 525→Ala (from UniProt P04626 23-645) (domain or fragment)  149000 M⁻¹ s⁻¹
2. HER2 extracellular domain, residues 1-623, Val 552→Ala (from UniProt P04626 23-645) (domain or fragment)  169000 M⁻¹ s⁻¹
3. HER2 extracellular domain, residues 1-623, Phe 555→Ala (from UniProt P04626 23-645) (domain or fragment)  184000 M⁻¹ s⁻¹
4. HER2 extracellular domain, residues 1-623, Ser 551→Ala (from UniProt P04626 23-645) (domain or fragment)  285000 M⁻¹ s⁻¹
5. human epidermal growth factor receptor 2 (HER2) extracellular domain, residues 1-623, wild type (from UniProt P04626 23-645) (domain or fragment)  322000 M⁻¹ s⁻¹
